In patent publication US11198713B2, “Agents modulating beta-catenin functions and methods thereof” (FOG PHARMACEUTICALS, INC., priority 2017, dated 2021):
Numbered stars: 1 amine (or outer) side, 2 acyl side, 3 side chain; on linkers, the order of the positions; unused ones are H or OH. Bridge positions count the residues as written; N and C are the ends. Square brackets hold non-standard residues; d marks the D form. Primed or numbered codes have the meaning given here. MI = Monomer I = ReN, acyclic amine-bearing olefin stapling residue; R7 = (R)-2-(6-heptenyl)alanine, C=CCCCCC[C@@](C)(N[*:1])C(=O)[*:2]; R6 = (R)-2-(5-hexenyl)alanine, C=CCCCC[C@@](C)(N[*:1])C(=O)[*:2]; S6 = (S)-2-(5-hexenyl)alanine, C=CCCCC[C@](C)(N[*:1])C(=O)[*:2]; R4 = (R)-2-(3-butenyl)alanine, C=CCC[C@@](C)(N[*:1])C(=O)[*:2]; MG = Monomer G = RdN, acyclic alkyl-N(Alloc) stapling residue; MC = Monomer C = PyrR, Alloc-pyrrolidine stapling residue; MA = Monomer A (Az), N-Alloc azetidine stapling residue; S7 = C[C@@](CCCCCC=[*:3])(N[*:1])C(=O)[*:2]; R5 = C=CCCC[C@@](C)(N)C(=O)O; MB(7) = not defined here

T1: full-length beta-catenin (UniProt P35222 2-781, limits assumed)
T1 construct: mature; also called full-length ß-Catenin; β-catenin
T1 sequence (looked up): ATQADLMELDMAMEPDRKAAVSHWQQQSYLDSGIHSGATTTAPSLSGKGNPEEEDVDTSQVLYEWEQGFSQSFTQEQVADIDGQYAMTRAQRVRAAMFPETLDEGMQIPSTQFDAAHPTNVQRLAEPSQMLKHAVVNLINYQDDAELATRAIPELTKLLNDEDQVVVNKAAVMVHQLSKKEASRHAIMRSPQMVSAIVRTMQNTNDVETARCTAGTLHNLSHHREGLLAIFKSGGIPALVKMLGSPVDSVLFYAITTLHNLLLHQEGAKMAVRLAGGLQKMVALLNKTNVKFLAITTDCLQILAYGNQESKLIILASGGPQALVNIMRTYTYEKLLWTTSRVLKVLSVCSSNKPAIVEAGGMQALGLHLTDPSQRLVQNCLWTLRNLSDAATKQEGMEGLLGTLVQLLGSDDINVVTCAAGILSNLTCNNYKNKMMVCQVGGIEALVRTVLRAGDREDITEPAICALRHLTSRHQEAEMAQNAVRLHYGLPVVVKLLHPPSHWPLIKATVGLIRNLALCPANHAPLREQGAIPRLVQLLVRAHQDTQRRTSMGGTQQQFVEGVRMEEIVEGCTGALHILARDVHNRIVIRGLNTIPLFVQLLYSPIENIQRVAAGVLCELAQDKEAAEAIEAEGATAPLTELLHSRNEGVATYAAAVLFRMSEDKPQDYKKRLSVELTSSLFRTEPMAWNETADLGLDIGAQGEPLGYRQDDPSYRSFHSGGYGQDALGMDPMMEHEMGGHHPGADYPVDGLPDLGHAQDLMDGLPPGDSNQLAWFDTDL

T2: biotinylated beta-catenin (Homo sapiens, UniProt P35222)
T2 sequence (P35222 1-781): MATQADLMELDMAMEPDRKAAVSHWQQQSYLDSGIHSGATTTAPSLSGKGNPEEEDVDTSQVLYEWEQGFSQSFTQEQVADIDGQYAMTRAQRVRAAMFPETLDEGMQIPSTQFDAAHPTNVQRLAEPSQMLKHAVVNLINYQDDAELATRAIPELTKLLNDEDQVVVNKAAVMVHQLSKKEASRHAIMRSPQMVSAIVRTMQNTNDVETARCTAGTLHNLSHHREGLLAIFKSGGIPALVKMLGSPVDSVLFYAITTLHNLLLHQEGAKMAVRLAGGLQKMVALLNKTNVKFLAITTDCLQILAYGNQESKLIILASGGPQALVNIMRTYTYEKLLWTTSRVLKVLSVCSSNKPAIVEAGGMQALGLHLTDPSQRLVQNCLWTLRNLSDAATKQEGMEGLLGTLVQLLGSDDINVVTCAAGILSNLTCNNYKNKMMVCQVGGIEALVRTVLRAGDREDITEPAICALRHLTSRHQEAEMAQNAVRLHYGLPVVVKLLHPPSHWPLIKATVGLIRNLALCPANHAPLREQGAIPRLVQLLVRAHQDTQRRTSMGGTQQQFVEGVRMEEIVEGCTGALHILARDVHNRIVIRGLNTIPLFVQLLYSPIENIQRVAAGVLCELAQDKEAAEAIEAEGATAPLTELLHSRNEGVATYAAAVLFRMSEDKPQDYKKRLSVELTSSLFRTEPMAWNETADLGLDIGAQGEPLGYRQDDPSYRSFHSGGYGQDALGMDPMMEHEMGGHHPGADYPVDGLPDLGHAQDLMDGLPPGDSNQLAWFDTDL

B1: FP0782c (peptide)
peptide: Ac-PQ[MG]ILD[R5]HVRRVWR-NH2
modifications: staple 3-7; also: carbamate staple (-N(R')-C(O)-O-) by ring-closing olefin metathesis
B2: FP0768c (peptide)
peptide: Ac-PQ[R7]ILD[MC]HVRRVWR-NH2
modifications: staple 3-7; also: carbamate staple (-N(R')-C(O)-O-) by ring-closing olefin metathesis
notes: also called R7/PR
B3: FP0783c (peptide)
peptide: Ac-PQ[MI]ILD[R5]HVRRVWR-NH2
modifications: staple 3-7; also: carbamate staple (-N(R')-C(O)-O-) by ring-closing olefin metathesis
B4: FP0745c (peptide)
peptide: Ac-PQ[MC]ILD[R6]HVRRVWR-NH2
modifications: staple 3-7
B5: FP0761c (peptide)
peptide: Ac-PQ[S6]ILD[MB(7)]HVRRVWR-NH2
modifications: staple 3-7; reading uncertain
B6: FP0725c (peptide)
peptide: Ac-PQ[MA]ILD[R6]HVRRVWR-NH2
modifications: staple 3-7
notes: also called Az/R6
B7: FP0767c (peptide)
peptide: Ac-PQ[R6]ILD[MC]HVRRVWR-NH2
modifications: staple 3-7; also: carbamate staple (-N(R')-C(O)-O-) by ring-closing olefin metathesis
notes: also called R6/PR
B8: FP0765c (peptide)
peptide: Ac-PQ[R4]ILD[MC]HVRRVWR-NH2
modifications: staple 3-7
notes: also called R4/PR
B9: FP0763c (peptide)
peptide: Ac-PQ[S7]ILD[MB(7)]HVRRVWR-NH2
modifications: staple 3-7; reading uncertain
notes: also called S7/PS
B10: FP0766c (peptide)
peptide: Ac-PQ[R5]ILD[MC]HVRRVWR-NH2
modifications: staple 3-7
notes: also called R5/PR

target: T1, full-length beta-catenin; test: competition FP; details: not given
Description: (§1) In some embodiments, a competition fluorescence polarization assay is used to assess binding of provided compounds to beta-catenin. In an exemplary procedure, solutions of provided compounds, e.g., provided stapled peptides, were prepared in a buffer (e.g., 50 mM Tris pH 8.0, 250 mM NaCl, 2% glycerol, 0.5 mM EDTA, 0.02% w/v sodium azide) using a 3-fold serial dilution from 5 µM. Probe solution (15 nM full-length ß-Catenin, 20 nM FITC labeled peptide in buffer) was prepared and incubated for a period of time, e.g., 5 minutes, and the a volume, e.g., 40 µL per well plated in suitable plate, e.g., a black polystyrene 384-well plate (Corning). Equal volume of the serial diluted peptide was added to the plate and incubated protected from light for 15 minutes prior to read. Reads were performed on a Spectramax M5 (Molecular Devices) in duplicate. Suitable probe was FITC-PEG1-PQ-S5-ILD-S5-HVRRVWR (SEQ ID NO: 1) (hydrocarbon staple formed by two S5 via olefin metathesis) and/or FITC-bA-PQ-S5-ILD-S5-HVRRVWR (SEQ ID NO: 3) (hydrocarbon staple formed by two S5 via olefin metathesis). […] Another peptide, FPO217c (Ac-AR_8ILDAHIM$B5$RVW (SEQ ID NO: 280), with N-terminal proline removed and valine replaced with isoleucine compared to FP0025c) was prepared.

Molecule	EC50
B1	380 nM
B2	150 nM
B3	990 nM
B4	110 nM
B5	460 nM
B6	80 nM
B7	110 nM
B8	30 nM
B9	115 nM
B10	20 nM

target: T2, biotinylated beta-catenin; test: Surface Plasmon Resonance (Biacore); format: binding; details: Biacore, biotinylated beta-catenin; read-out: Kd
Description: Additionally or alternatively, binding to beta-catenin may be measured by Surface Plasmon Resonance. In an exemplary assay, approximately 6 nmol dried peptide diluted in buffer (50 mM Tris pH 8.0, 300 mM NaCl, 2% glycerol, 0.5 mM TCEP, 0.5 mM EDTA, 0.005% Tween-20, 1 mg/mL CM Dextran, 0.02% w/v sodium azide) was assayed on a Biacore X100 using the Biacore Biotin CAPture Kit (GE Healthcare) and biotinylated beta-catenin. Results were analyzed using the Biacore X100 Evaluation Software. […] FPO217c (Isomer 2) bound to the armadillo domain of β-catenin with a Kd of 2 nM.

Molecule	Kd
CC[C@H](C)[C@@H]1NC(=O)C2(NC(=O)[C@H](CCC(N)=O)NC(=O)[C@@H]3CCCN3C(C)=O)CN(C2)C(=O)OCC=CCCCC[C@](C)(C(=O)N[C@@H](Cc2c[nH]cn2)C(=O)N[C@H](C(=O)N[C@@H](CCCNC(=N)N)C(=O)N[C@@H](CCCNC(=N)N)C(=O)N[C@H](C(=O)N[C@@H](Cc2c[nH]c3ccccc23)C(=O)N[C@@H](CCCNC(=N)N)C(N)=O)C(C)C)C(C)C)NC(=O)[C@H](CC(=O)O)NC(=O)[C@H](CC(C)C)NC1=O (single isomer, unassigned) [FP-0725c, Ac-P-Q-Az-I-L-D-R6-H-V-R-R-V-W-R-NH2]	~22 nM
CC[C@H](C)[C@@H]1NC(=O)[C@@]2(NC(=O)[C@H](CCC(N)=O)NC(=O)[C@@H]3CCCN3C(C)=O)CCN(CC=CCCCC[C@](C)(C(=O)N[C@@H](Cc3c[nH]cn3)C(=O)N[C@H](C(=O)N[C@@H](CCCNC(=N)N)C(=O)N[C@@H](CCCNC(=N)N)C(=O)N[C@H](C(=O)N[C@@H](Cc3c[nH]c4ccccc34)C(=O)N[C@@H](CCCNC(=N)N)C(N)=O)C(C)C)C(C)C)NC(=O)[C@H](CC(=O)O)NC(=O)[C@H](CC(C)C)NC1=O)C2 (single isomer, unassigned) [FP-0745a]	~34 nM
CC[C@H](C)[C@@H]1NC(=O)[C@](C)(NC(=O)[C@H](CCC(N)=O)NC(=O)[C@@H]2CCCN2C(C)=O)CCC=CCOC(=O)N2CC[C@](C(=O)N[C@@H](Cc3c[nH]cn3)C(=O)N[C@H](C(=O)N[C@@H](CCCNC(=N)N)C(=O)N[C@@H](CCCNC(=N)N)C(=O)N[C@H](C(=O)N[C@@H](Cc3c[nH]c4ccccc34)C(=O)N[C@@H](CCCNC(=N)N)C(N)=O)C(C)C)C(C)C)(C2)NC(=O)[C@H](CC(=O)O)NC(=O)[C@H](CC(C)C)NC1=O (single isomer, unassigned) [FP-0765c, Ac-P-Q-R4-I-L-D-PR-H-V-R-R-V-W-R-NH2]	~13 nM
CC[C@H](C)[C@@H]1NC(=O)[C@](C)(NC(=O)[C@H](CCC(N)=O)NC(=O)[C@@H]2CCCN2C(C)=O)CCCC=CCOC(=O)N2CC[C@](C(=O)N[C@@H](Cc3c[nH]cn3)C(=O)N[C@H](C(=O)N[C@@H](CCCNC(=N)N)C(=O)N[C@@H](CCCNC(=N)N)C(=O)N[C@H](C(=O)N[C@@H](Cc3c[nH]c4ccccc34)C(=O)N[C@@H](CCCNC(=N)N)C(N)=O)C(C)C)C(C)C)(C2)NC(=O)[C@H](CC(=O)O)NC(=O)[C@H](CC(C)C)NC1=O (single isomer, unassigned) [FP-0766c, Ac-P-Q-R5-I-L-D-PR-H-V-R-R-V-W-R-NH2]	~7 nM
CC[C@H](C)[C@@H]1NC(=O)[C@@](C)(NC(=O)[C@H](CCC(N)=O)NC(=O)[C@@H]2CCCN2C(C)=O)CCCC=CCCC[C@@](C)(C(=O)N[C@@H](Cc2c[nH]cn2)C(=O)N[C@H](C(=O)N[C@@H](CCCNC(=N)N)C(=O)N[C@@H](CCCNC(=N)N)C(=O)N[C@H](C(=O)N[C@@H](Cc2c[nH]c3ccccc23)C(=O)N[C@@H](CCCNC(=N)N)C(N)=O)C(C)C)C(C)C)NC(=O)[C@H](CC(=O)O)NC(=O)[C@H](CC(C)C)NC1=O (single isomer, unassigned) [FP-0787c]	~14 nM

target: T1, full-length beta-catenin; test: competition FP, grade of FP EC50 (+++: <=100 nM); details: not given
Description: as §1

Molecule	FP EC50
B6	≤ 100 nM
B8	≤ 100 nM
B10	≤ 100 nM

target: T1, full-length beta-catenin; test: competition FP, grade of FP EC50 (++: 100-500 nM); details: not given
Description: as §1

Molecule	FP EC50
B1	100 to 500 nM
B2	100 to 500 nM
B4	100 to 500 nM
B5	100 to 500 nM
B7	100 to 500 nM
B9	100 to 500 nM

target: T1, full-length beta-catenin; test: competition FP, grade of FP EC50 (+: 500-5000 nM); details: not given
Description: as §1

Molecule	FP EC50
B3	500 to 5000 nM
